Reference: the nanobody polyreactivity screen of Harvey et al. (2022)

Assay: yeast display, Sf9 membrane polyspecificity reagent, FACS + sequencing; frameworks hold sequencing errors
Method in brief: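 A synthetic nanobody library was expressed on Saccharomyces cerevisiae BJ5465 by galactose induction for 36–48 hours. The library was stained for 1 hour at 4 °C with 10% biotinylated, detergent-solubilized Sf9 membrane reagent and enriched with streptavidin microbeads before FACS. Low and high (top ~1%) gates were set on anti-HA fluorescence for expression and streptavidin fluorescence for reagent binding, and each polyreactivity label reflects the gate of origin.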

Sequence | polyreactivity (PSR sort gate)
QDQLVESGGGLVQAGGSLRLSCAASGSTLRYYAMGWYRQAPGKERELVAAITYSAGRTSYADSVKGRFTISRDNAKNTVYLQMNSLKPEDTAVYYCATQWHSYLRRYDYWGQGTQVTVSS | low polyreactivity
QDQLVESGGGLVQAGGSLRLSCAASGSTLYSNTMGWYRPAPGKERELVAAICWSGASTYYADSVKGRFSISRDNAKNTVYLQMNSLKPEDTAVYYCAAGAYRNWGLYYYWGQGTQVTVSS | high polyreactivity
QDQLVESGGGLVQAGGSLRLSCAASGSTYYYAMGWYRQAPGKERELVAAIRSGSRTYADSVKGRFTISRDNAKNTVYLQMNSLKPEDTAVYYCAATTWRHNFYSWGQGTQVTVSS | high polyreactivity
QDQLVESGGGLVQAGGSLRLSCAASGYIFITKAMGLNRQAPGKERELVAAINSGGSTYYADSVKGRFTISRDNAKNTVYLQMKSLKPEDTAVYYCAAEYWVYYWHYYDYWGQGTQVTVSS | high polyreactivity
QDQLVESGGGLVQAGGSLRLSCAASGYTFAYYAMGWYRQAPGKERELVARITSGGRTYYADSVKGRFTISRDNAKNTVYLQMNSLKPEDTAVYYCNAAWPFRYRRYDYWGQGTQVSVSS | high polyreactivity
QDQLVESGGGLVQAGGSLRLSCAASRRTFSNYAMGWYRPAPGKERELVAAISGTGDNTYYADSVKVRFTISRDNANYTVYLQMNSLKPEDTAVYYCNTVYYGWPRCYGYWGQGTQVTVSS | high polyreactivity
QDQLVESGGGLVQAGGSLRLSCAASVSIFWSYAMGRSRQAPGKEMELVASITRSGGSTYYADSVKGRFTISRDNAKNTVYLQMNSLKPEDTAVYYCNARRTTRWGSSKYEYDYCGQGTQVTVSS | high polyreactivity
QDQLVESGGGLVQAGGSLRLSCAAYGYTFPWYAMGWYRQAPGKERELVAAISDTGTTNYADSVKGRFTISRDNAKNTVYLQMNSLKPEDTAVYYCNAKVTSYWYYPFNYWGQGTQVTVSS | low polyreactivity
QDQLVESGGGLVQAGGSLRLSFAASGSIFGVNALGWYRQAPGKERELVAAISARGGSTYYADSVKGRFTISRDNAKNTVYLQMNSQKPEDTAVYYCAATFRARPRENYWGQGTQVTVSS | high polyreactivity
QDQLVESGGGLVQAGGSLRLSFAASGSTFANYAMVWYRQAPGKEREWVAAISFSTVSTYYADSVKGRFTISRDNAKNTVYIQMNSLKPEDTAVYYCNTYYYGSRPSEDYWGQGTQVTVSS | high polyreactivity
QDQLVESGGGLVQAGGSLRLSFAASGSTFVRYAMVWYRQAPGKERELVAAISRSGGSTYYADSVKGRFTISRDNAKNTVYLQMNSLKPEDTAVYYCAARLVYSGRDRGYDYWGQGTQVTVSS | high polyreactivity
QDQLVESGGGLVQAGGSLRLSFAASGSTFWYNDMGWYRQAPGKERELVASISWSGGDTYYADSVKGRFTISRDNAKNSVYLQMNSLKPEDTEVYYCAKGNNWISRLMDYWGQGTQVTVSS | low polyreactivity
QDQLVESGGGLVQAGGSLRLSIAASVRIFYANAMGWYRQAPGQERELVAAISSGGSTYYADSVKGRFTISRDNAKNTVYLQMNSLKPEDTAVFYCAVYTHKKVRPEYDYWGQGTQVTVSS | low polyreactivity
QDQLVESGGGLVQAGGSLSLICAASGFNFALYAMGWYRQAPGKERELVAAINWSGGRTYYADSVKGRFTISRDNAKNTVYLQMNSLKPEDTAVYYCNRRAFSPYAANYYYWGQGTQVTVSS | high polyreactivity
QDQLVESGGGLVQAGGSLSLSCAASGRTFAVYAMGWYRQAPGKEMELVAAITQSGGSTYYADSVKGRFTISRDNAKNTVYLQINSMKPEDTAVYYCAKTGRFPYTAGQSFGYDYWGQGTQVTVSS | low polyreactivity
QDQLVESGGGLVQAGGTLRLSCAASGRIFPYNAMGWYRQAPGKERQLVAAISKSGVRTYYADSVKGRFTISRDNAKNTVYLQMNSLNPEETAVYYCAKLSPYGGDVGASEGPEYDYWGQGTQVTVSS | high polyreactivity
QDQLVESGGGLVQAGGTLRLSCAASGSTFARYAMGWYRQAPGKERELVAAISRRGGSTYYADSVKGRFTISRDNAKITVDLQMNSLKPEDTAVYSCAARYGIISYLEYDYWGQGTQVTVSS | high polyreactivity
QDQLVESGGGLVQAGVSLRLSCAASGSIFNRNAMGWYRQAPGKERELVADISWSGGSTYYADSVKGRFTISRDNAKNTVYLQMNSLKPEDTAVYYCADKSTGRWWRAGYDYWGQGTQVTVSS | high polyreactivity
QDQLVESGGGLVQAGVSLRLSCPASGYNFDYYVMGWYRQAPGKERELVAAISSSGGSTYYADSVKGRFTISRDNAKNTVYLQMNSLKPEDTAVYYCATKPYPYYLYYYWGQGTQVTVSS | high polyreactivity
QDQLVESGGGLVQARGSLRLRCAASGFIFIFNAMGWYRPAPGKERELVAAIDTSDDSTYYADSVKGRFTISRDNGKNTVYLQLNSLKPEDTAVYYCAAEELSNYEYWGQGTQVTVSS | low polyreactivity
QDQLVESGGGLVQARGSLRLSSAATGSIFGTKAKGWYRQATGKEKEYDAAIDYSGSITRYADSVKGRFTISRDLSKNTVYLKMNSLKPEDTAVYYCAARSYAKDWGGYNYWGQGTQGTVSS | high polyreactivity
QDQLVESGGGLVQPGGSLRLSCAASGSTFANYAMGWYRQAPGNERQLVAALDHSGGSTYYADSVKGRFTISRDNAKNPVYLQMNSLKPEDTAVYYCNVVNGWLDVSSPDDSLAYLYDYWGQGSQVTVSS | low polyreactivity

Sequence | polyreactivity (PSR sort gate)
QDQLVESGGGLVQSGGSLLLSCAPSGSTFVWYAMGWYRQERGKEMEFDATISWSDGSTYYADSVKGRFTISRDNPKNTVYLQMNILKPEDTAVYYCAAEQYGYYYSLWEYDNIWEGYWGPGTQVTVSS | low polyreactivity
QDQLVESGGGSVQAGGSLRLSCAAYGRIYILYAMGWYRQAPGQERELVAAISWSGGSTYYADSVKGRFTISRDNAKKTVDGQRNSLKPEYTAVYYCNVVSKYKHTYDFDYWGQGTQVNVSS | high polyreactivity
QDQLVESGGGVVQAGGSLRLSCAASGRIVGSKASGVSIEAPRKESEFVAAISSCSRTYYADSVKGLFSISRDNAKNTVYLQMNSLKPEDTAVYYCAKRGYFYSHRHGYEYGGQGTQVTVSS | high polyreactivity
QDQLVESGGGVVQAGGSLRLSCDASGFIFYRYAMGWSRQAPGKERELLAAISRSGGSTYYADSVKRRFTISRDNAKYTVYLQLKSLKPEDTAVYYCATTGQRNLYLVNYSGQGTQVTVSS | low polyreactivity
QDQLVESGGRLVQAVGSLRLSCAASGRIFTDYTMGWYRQAHGKERELVAAISYSGGSTYYADSVKGRFTISRDNAKNTVYLQMNSLKPEDTAVYYCNKDYYVHDGYGYWGQGTQVTVSS | low polyreactivity
QDQLVESGGSLVQAGGSLRLSCASSGSIFKGNVMGCYRQAPGKERELVAAITWSAGSTYYADSVKGRFTISRDNAKNTVYLQMNRLKPEDTAVYYCNTDRYHGVDFDYWGQGTQVSVSS | high polyreactivity
QDQLVESGGVLVQAGGSLRLSCAASGSTFYYYAMGWYRQAPRKEREFVSSISSRRTSTYYADSVKGRLTISRDNAKNNVYLQMNSLKREDTAVYYCADTQYRSDGWRYDYWGQGTQVTVSS | high polyreactivity
QDQLVESGGVLVQARGSLRLSCAASASTLPGYAMGWYRQAPGKERELVAAISSSGTSTYYADSVKGRFTISRDNAKNTVYLQMNSLKPEDTAVYYCAAEGYRWVTAYYDYDEDYWGQGTQVTVSS | low polyreactivity
QDQLVESGRGLVQAGGSLRLSCAASGNTFYRYTMGWYRQAPGNERELVDAISGRGGSTTYADSVKGRFTISRDPAKNTVYLQMKSLIPEDTAVYYCAAVTGGTAYYASTYYYWGQGTQVTVSL | high polyreactivity
QDQLVESGVGLDQAGGSLRLSCAASGRIFRGSAMGWFSQAPGKEREFVAAITKNGGSTYYADSVNARFTISRDNANNTVYVQMNSLKPEDTAVYDCAVRAWDPDTGNSDYWGQGTQGTVSS | low polyreactivity
QDQLVESGVGLVQAGGSLRLSCAASGYIFLLYDMGWYRQAPGKEREMVATITSGGGTYYADSVKGRVTISRDNAKNTVYLQMNSLIPEDTAVYYCNADLYRWTGRSYWDKHGSWGQGTQVTVSS | low polyreactivity
QDQLVESRGGLVQAGGSLRLSCAASGRTFYINAMGWYRQAPGKERELVAAISWGGGRTYYADSVKGRFTISRDNAKNTVYLQMNSLKPEDTAVYYCAAEVAYYKYDYWGQGTQVTVSS | high polyreactivity
QDQLVESRGGLVQAGGSLRLSCAASGSIFTVNAMGWYRQAPRKERELVASITWRSGSTYYPDSVKGRFTISRDNAKNSVYLQMNRLKPEDTAFYYCNADSDYPYYPGNFDYWGQGTQVTVSS | low polyreactivity
QDQLVESRGGLVQAGGSLRLSCAAYGRTFIPYAMGWNSQATGKERELVAAITVRGSSTYYADSVKGRFTISRDNAKNTVYFQMNSLKPEDTAIYYCATDRRYRAFYYWGQGTQVTVSS | high polyreactivity
QDQLVESRGGLVQAGGSLSISCAASGFTFRYYAMGWYRQAPGKERELVAGISWRGGSTNYADSVKGRFTISRDNAKNTVYFQMNSLNPDDSEVYSCNAVSYSFPILRVRPTWYDYWGQGTQVTVSS | high polyreactivity
QDQLVESVGGLNQAGGSLRLSCAASGIIFYPYTIGWYRQAPGKERELVAAIRQSGTSTYYADSVKGRFTISRDNAKNTVYLQMNSLKPEDTAVYYCNVEPYQPPGHDRSYAYDYWGQGTQVTVSS | low polyreactivity
QDQLVESVGGLVQAGCSLRLSSAASVSIFVIYAMGWYRQAPGNERELVAAISWNGGSTFYADSVKGRITISRDNAKNTVYLQMNSQKPEDTAVYYCNTVASYYRWKSYYYWGQGTQVTVSS | high polyreactivity
QDQLVESVGGLVQAGGSLPLSSAASGLTFKRNAMRWYSQAPGKERELVAAIRYSTDSTNYADSVKGRFTISRDNAKNTVYCQMNSLKPESTAVYYCAKDKQDYEYWGQGTQVTVSS | low polyreactivity
QDQLVESVGGLVQAGGSLRLSCAASAITFGNYAMGWYRQAPGKERELVAGISWSGSSTYYADSVKGRFTISRDNSKNTVYLQMNSLKPEDTAVYYCNAVQPARFVGGFGTGVDYWGQGTQVTVSS | high polyreactivity
QDQLVESVGGLVQAGGSLRLSCAASGLTISQNAMGWYRQAPGKERELVAAITRSGSTTHYADSVKWRFTISRDNAKNTVYLQMNSLKPEDTAVYYCAAAHSYYGHYYYWGQGTQVTVSS | high polyreactivity
QDQLVESVGGLVQAGGSLRLSCAASGRIFWVNAMGWSRQAPGKERELVAAISWTSGSTYYADSVKGRFTISRDNAKNTVYLQMNSLKPEDTAVYYCNKVQSGEYDYWGQGTQVTVSS | high polyreactivity
